B1: Protein PALS1 (Homo sapiens), Q8N3R9 (parent)
chain: MTTSHMNGHVTEESDSEVKNVDLASPEEHQKHREMAVDCPGDLGTRMMPIRRSAQLERIRQQQEDMRRRREEEGKKQELDLNSSMRLKKLAQIPPKTGIDNPMFDTEEGIVLESPHYAVKILEIEDLFSSLKHIQHTLVDSQSQEDISLLLQLVQNKDFQNAFKIHNAITVHMNKASPPFPLISNAQDLAQEVQTVLKPVHHKEGQELTALLNTPHIQALLLAHDKVAEQEMQLEPITDERVYESIGQYGGETVKIVRIEKARDIPLGATVRNEMDSVIISRIVKGGAAEKSGLLHEGDEVLEINGIEIRGKDVNEVFDLLSDMHGTLTFVLIPSQQIKPPPAKETVIHVKAHFDYDPSDDPYVPCRELGLSFQKGDILHVISQEDPNWWQAYREGDEDNQPLAGLVPGKSFQQQREAMKQTIEEDKEPEKSGKLWCAKKNKKKRKKVLYNANKNDDYDNEEILTYEEMSLYHQPANRKRPIILIGPQNCGQNELRQRLMNKEKDRFASAVPHTTRSRRDQEVAGRDYHFVSRQAFEADIAAGKFIEHGEFEKNLYGTSIDSVRQVINSGKICLLSLRTQSLKTLRNSDLKPYIIFIAPPSQERLRALLAKEGKNPKPEELREIIEKTREMEQNNGHYFDTAIVNSDLDKAYQELLRLINKLDTEPQWVPSTWLR

Variants of: B1
Settings: with vemp_sars E

Row | Variant | effect of a mutation on the interaction
1 | F318W | increasing interaction strength

Source: IntAct's records for PubMed 33758649
